Measurements from US10392620B2, “Cytochrome B (CYTB) nucleic acid molecules that control pathogens” (Dow AgroSciences LLC, priority 2016, dated 2019).

B1: MgCytB-T4: 219 bp dsRNA of Zymoseptoria CytB region T4, location 1-219 (SEQ ID NO:7) (nucleic acid, listed as Zymoseptoria tritici)
chain: ATGAGGATTTGGAAGAGTCACCCTTTATTTAGTCTGGTTAATGGTTATCTTATCGATTCACCACAACCAAGTAATCTAAGCTATCTATGAAATTTCGGTTCATTACTGGGATTTTGTCTTGTAATACAAATCGTTACTGGTGTTACACTTGCTATGCATTATAACCCTAGCGTATCTGAAGCATTTAACTCAGTTGAACACATAATGAGAGATGTAAAC
modifications: complementary strand of dsRNA
B2: MgCytB-T5: 172 bp dsRNA of Zymoseptoria CytB region T5, location 173-344 (SEQ ID NO:8) (nucleic acid, listed as Zymoseptoria tritici)
chain: TATCTGAAGCATTTAACTCAGTTGAACACATAATGAGAGATGTAAACAATGGATGACTTATACGTTATCTTCACTCTAATACTGCTTCAGCTTTCTTCTTTTTAGTTTACCTGCACGTGGGTAGAGGGTTATACTACGGGTCATACAAAGCCCCTAGAACATTAACATGAAC
modifications: complementary strand of dsRNA
B3: MgCytB-T7: 221 bp dsRNA of Zymoseptoria CytB region T7, location 947-1167 (SEQ ID NO:10) (nucleic acid, listed as Zymoseptoria tritici)
chain: GATTACAGTTTAGACCTTTAAGCAAGATCACATTTTACATATTTGTTGCTAACTTCTTAGTATTAATGCAATTAGGTGCTAATCACGTTGAGTCACCATTTATAGAATTTGGGCAAATTAGTACAGTACTGTACTTTTCACATTTCTTAATCATAGTGCCTCTAGTAAGCTTAATCGAGAATACTTTAGTGGATATGCACTTAAACAACACAATAACGTAA
modifications: complementary strand of dsRNA
B4: MgCytB-T6: 258 bp dsRNA of Zymoseptoria CytB region T6, location 775-1032 (SEQ ID NO:9) (nucleic acid, listed as Zymoseptoria tritici)
chain: GTTATGGCTAACCCTATGCAAACTCCACCTGCTATAGTGCCTGAATGATATTTATTACCTTTCTACGCTATACTAAGATCAATACCTAACAAACTATTAGGTGTGATCGCAATGTTTTCTGCTATATTGATTATAATGATAATGCCAATTACCGATTTAGGTAGAAGTAGAGGATTACAGTTTAGACCTTTAAGCAAGATCACATTTTACATATTTGTTGCTAACTTCTTAGTATTAATGCAATTAGGTGCTAATCAC
modifications: complementary strand of dsRNA

Tested on: Zymoseptoria tritici (SEPTTR-184)
Experiment: Efficacy of target gene fragments (MgCytB dsRNA tiles) on wheat plants, SEPTTR-184
Format: in vivo
Parameters: Average of 2 trials SEPTTR-184 3DC / Average of 2 trials SEPTTR-184 1DP: scale not given here
Conditions: for ED50 SEPTTR-184 1DP / ED80 SEPTTR-184 1DP / Disease Control All Rates Average SEPTTR-184 1DP / Sum of Disease Control SEPTTR-184 1DP / Average of 2 trials SEPTTR-184 1DP: 1DP (preventative); for Disease Control All Rates Average SEPTTR-184 1DP / Disease Control All Rates Average SEPTTR-184 3DC: average of 200, 50, 12.5, 3.125 ppm; for Sum of Disease Control SEPTTR-184 1DP / Sum of Disease Control SEPTTR-184 3DC: sum over 200, 50, 12.5, 3.125 ppm; for ED50 SEPTTR-184 3DC / ED80 SEPTTR-184 3DC / Disease Control All Rates Average SEPTTR-184 3DC / Sum of Disease Control SEPTTR-184 3DC / Average of 2 trials SEPTTR-184 3DC: 3DC (curative)
Experimental: The 200 ppm rate for each treatment was prepared by adding the calculated volume of the corresponding dsRNA solution in TE buffer. Lower rates were prepared as 4-fold dilutions (50 ppm, 12.5 ppm, and 3.12 ppm). A non-target dsRNA control (YFP), a TE/phosphate buffer control, disease pressure control, and clean plant control were included.
These plants were inoculated with an aqueous spore suspension of Zymoseptoria tritici either prior to or after fungicidal treatments. After inoculation the plants were kept in 100% relative humidity to allow spores to germinate and infect the leaves. The plants were then transferred to a greenhouse until disease developed.

| Molecule | ED50 SEPTTR-184 1DP [ppm] | ED80 SEPTTR-184 1DP [ppm] | Disease Control All Rates Average SEPTTR-184 1DP [%] | Sum of Disease Control SEPTTR-184 1DP [%] | ED50 SEPTTR-184 3DC [ppm] | ED80 SEPTTR-184 3DC [ppm] | Disease Control All Rates Average SEPTTR-184 3DC [%] | Sum of Disease Control SEPTTR-184 3DC [%] | Average of 2 trials SEPTTR-184 1DP (3.125 ppm) | Average of 2 trials SEPTTR-184 3DC (3.125 ppm) | Average of 2 trials SEPTTR-184 1DP (12.5 ppm) | Average of 2 trials SEPTTR-184 3DC (12.5 ppm) | Average of 2 trials SEPTTR-184 1DP (50 ppm) | Average of 2 trials SEPTTR-184 3DC (50 ppm) | Average of 2 trials SEPTTR-184 1DP (200 ppm) | Average of 2 trials SEPTTR-184 3DC (200 ppm) |
| --- | --- | --- | --- | --- | --- | --- | --- | --- | --- | --- | --- | --- | --- | --- | --- | --- |
| B1 | <3.125 | >200 | 73 | 292 | <3.125 | 44 | 79 | 316 | 71 | 76 | 74 | 75 | 73 | 81 | 74 | 83 |
| B2 | <3.125 | >200 | 71 | 284 | 4.605 | 200 | 66 | 265 | 68 | 47 | 68 | 66 | 73 | 72 | 76 | 80 |
| B3 | <3.125 | >200 | 69 | 275 | <3.125 | >200 | 74 | 297 | 60 | 76 | 69 | 72 | 71 | 73 | 75 | 76 |
| B4 | <3.125 | >200 | 73 | 293 | <3.125 | >200 | 60 | 239 | 72 | 53 | 77 | 63 | 72 | 64 | 72 | 59 |
